B1: Axin interactor, dorsalization-associated protein (Mus musculus), Q8C4Q6-1 (parent)
chain: MSEVTRSLLQRWGASLRRGADFDSWGQLVEAIDEYQILARHLQKEAQAQHNNSEFTEEQKKTIGKIATCLELRSAALQSTQSQEEFKLEDLKKLEPILKNILTYNKEFPFDVQPIPLRRILAPGEEENLEFEEDEEGGAGAGPPDSFSARVPGTLLPRLPSEPGMTLLTIRIEKIGLKDAGQCIDPYITVSVKDLNGIDLTPVQDTPVASRKEDTYVHFNVDIELQKHVERLTKGAAIFFEFKHYKPKKRFTSTKCFAFMEMDEIKPGPIVIELYKKPTDFKRKKLQLLTKKPLYLHLHQSLHKE

Variants of: B1
Conditions: with Axin1, O35625-2
Chain of Axin1, O35625-2 (O35625 other isoform, or with tags, fused parts or gaps): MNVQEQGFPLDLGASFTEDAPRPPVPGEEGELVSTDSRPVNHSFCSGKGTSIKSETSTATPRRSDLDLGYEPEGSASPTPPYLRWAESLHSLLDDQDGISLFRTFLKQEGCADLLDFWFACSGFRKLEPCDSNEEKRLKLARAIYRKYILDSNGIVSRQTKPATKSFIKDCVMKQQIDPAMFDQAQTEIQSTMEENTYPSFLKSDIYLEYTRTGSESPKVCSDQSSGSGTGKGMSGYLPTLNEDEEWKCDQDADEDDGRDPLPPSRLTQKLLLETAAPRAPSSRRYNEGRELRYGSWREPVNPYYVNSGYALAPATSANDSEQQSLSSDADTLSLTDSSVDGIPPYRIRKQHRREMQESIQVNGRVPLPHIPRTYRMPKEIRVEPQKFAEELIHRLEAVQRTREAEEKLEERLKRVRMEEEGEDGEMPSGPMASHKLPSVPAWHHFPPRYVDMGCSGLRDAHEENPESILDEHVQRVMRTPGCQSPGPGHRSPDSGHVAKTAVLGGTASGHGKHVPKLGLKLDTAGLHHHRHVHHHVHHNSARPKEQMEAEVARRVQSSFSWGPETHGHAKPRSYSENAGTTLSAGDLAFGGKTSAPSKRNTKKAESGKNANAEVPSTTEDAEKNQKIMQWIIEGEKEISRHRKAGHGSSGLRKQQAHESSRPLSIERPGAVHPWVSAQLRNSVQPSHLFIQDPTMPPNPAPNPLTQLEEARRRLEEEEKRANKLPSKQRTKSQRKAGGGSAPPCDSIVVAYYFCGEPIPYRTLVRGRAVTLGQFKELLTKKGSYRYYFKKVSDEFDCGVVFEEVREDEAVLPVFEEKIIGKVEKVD

Row | Variant | effect of a mutation on the interaction
1 | K282A;R283A;K284A;K285A | disrupting interaction

— IntAct's records for PubMed 25117763
